Results on one molecule are retold here after publication PMC8110528, “MyD88 TIR domain higher-order assembly interactions revealed by microcrystal electron diffraction and serial femtosecond crystallography” (Nature Communications, 2021).

The target in this experiment is T1, GFP-MAL^TIR fusion protein (EGFP residues 3-239; MAL residues 79-221) (UniProt P58753 79-221).
T1 construct: MAL (MyD88 adaptor-like/TIRAP), TIR domain, residues 79-221; Printed order of the fusion: EGFP residues 3-239, GSGGS linker, MAL residues 79-221, in pMCSG7; source: E. coli BL21 (DE3), purified (HisTrap FF, Superdex 75)
As to the kind of experiment: crystal growth assay (DIC and GFP fluorescence microscopy); GFP-MAL^TIR-MyD88^TIR or MAL^TIR-MyD88^TIR seeds washed three times, diluted and mixed with MyD88^TIR (95 µM); 10 mM HEPES pH 7.5, 150 mM NaCl, 30 °C. The note with it: both partners purified.

T1 sequence (P58753 79-221): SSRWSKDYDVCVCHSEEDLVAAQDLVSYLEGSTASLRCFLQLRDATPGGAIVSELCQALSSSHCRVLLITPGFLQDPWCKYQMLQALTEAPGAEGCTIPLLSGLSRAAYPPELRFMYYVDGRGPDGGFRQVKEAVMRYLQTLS

B1: MyD88 TIR domain (MyD88^TIR), residues 155-296 (domain or fragment, human, UniProt Q99836 155-296, looked up)
chain: GHMPERFDAFICYCPSDIQFVQEMIRQLEQTNYRLKLCVSDRDVLPGTCVWSIASELIEKRCRRMVVVVSDDYLQSKECDFQTKFALSLSPGAHQKRLIPIKYKAMKKEFPSILRFITVCDYTNPCTKSWFWTRLAKALSLP
notes: MyD88 (myeloid differentiation primary response gene 88), TIR domain, residues 155-296 in pET28b; Forms open-ended two-stranded higher-order assemblies in the MAL-induced microcrystals; source: E. coli BL21 (DE3), purified (HisTrap FF, Superdex 75)
Consider B1, for which the binding result was “binds”.
